# Read-outs that look alike come from different tables or passages of the source.
# T1: BclB (UniProt Q9HD36)
# T1 sequence (looked up): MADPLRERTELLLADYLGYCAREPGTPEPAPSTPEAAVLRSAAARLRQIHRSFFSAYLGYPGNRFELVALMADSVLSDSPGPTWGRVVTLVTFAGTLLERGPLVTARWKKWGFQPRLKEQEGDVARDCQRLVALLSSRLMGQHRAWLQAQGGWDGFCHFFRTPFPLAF
# How the values were obtained:
# [1] = molecular target: Sag1 (Saccharomyces cerevisiae) (UniProt P20840); test: cell-based or functional assay
# [2] = molecular target: Sag1 (Saccharomyces cerevisiae) (UniProt P20840); test: cell-based or functional assay; remark: listed apart in the source
# Bcl2 = Bcl2 (UniProt P10415); test: affinity as tabulated ('known affinities'); method not stated
# Bcl2, sequence (P10415 1-207 limits assumed): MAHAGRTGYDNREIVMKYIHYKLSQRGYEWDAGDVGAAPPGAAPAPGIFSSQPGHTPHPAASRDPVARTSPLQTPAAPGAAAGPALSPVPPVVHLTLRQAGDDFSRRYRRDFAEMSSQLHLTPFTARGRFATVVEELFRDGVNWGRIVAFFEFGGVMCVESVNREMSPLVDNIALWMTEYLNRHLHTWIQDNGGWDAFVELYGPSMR
# BclB = molecular target: T1, BclB; test: as above
# BclW = BclW (UniProt Q92843); test: as above
# BclW, sequence (Q92843 1-182 limits assumed): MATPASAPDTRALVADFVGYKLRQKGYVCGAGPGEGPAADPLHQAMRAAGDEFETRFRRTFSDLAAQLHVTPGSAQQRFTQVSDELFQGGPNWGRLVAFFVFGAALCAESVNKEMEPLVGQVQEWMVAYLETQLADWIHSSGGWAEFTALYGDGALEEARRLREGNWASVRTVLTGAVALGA
# BclXL = BclXL (UniProt Q07817); test: as above
# BclXL, sequence (Q07817 1-209 limits assumed): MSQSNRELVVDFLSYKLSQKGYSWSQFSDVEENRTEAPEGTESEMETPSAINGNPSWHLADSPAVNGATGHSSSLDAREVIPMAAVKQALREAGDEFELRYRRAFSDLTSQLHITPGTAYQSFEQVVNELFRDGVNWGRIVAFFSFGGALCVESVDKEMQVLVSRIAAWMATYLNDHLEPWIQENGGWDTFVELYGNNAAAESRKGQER
# Bfl1 = Bfl1 (UniProt Q16548); test: as above
# Bfl1, sequence (Q16548 1-153 limits assumed): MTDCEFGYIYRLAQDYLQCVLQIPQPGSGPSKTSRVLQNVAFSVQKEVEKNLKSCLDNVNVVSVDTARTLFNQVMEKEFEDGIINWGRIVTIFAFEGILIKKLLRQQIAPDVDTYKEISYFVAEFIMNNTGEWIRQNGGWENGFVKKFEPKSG
# Mcl1 = Mcl1 (UniProt Q07820); test: as above
# Mcl1, sequence (Q07820 whole entry): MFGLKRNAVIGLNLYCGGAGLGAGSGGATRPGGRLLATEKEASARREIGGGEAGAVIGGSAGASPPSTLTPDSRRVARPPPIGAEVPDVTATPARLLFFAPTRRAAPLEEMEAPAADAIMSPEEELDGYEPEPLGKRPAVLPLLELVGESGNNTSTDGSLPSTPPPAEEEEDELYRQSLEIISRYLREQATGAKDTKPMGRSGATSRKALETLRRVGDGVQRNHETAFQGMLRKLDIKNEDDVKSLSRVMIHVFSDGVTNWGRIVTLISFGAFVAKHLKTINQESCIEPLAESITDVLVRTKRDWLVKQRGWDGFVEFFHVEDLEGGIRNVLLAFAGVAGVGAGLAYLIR
# Sag1 (Saccharomyces cerevisiae), sequence (P20840 20-627): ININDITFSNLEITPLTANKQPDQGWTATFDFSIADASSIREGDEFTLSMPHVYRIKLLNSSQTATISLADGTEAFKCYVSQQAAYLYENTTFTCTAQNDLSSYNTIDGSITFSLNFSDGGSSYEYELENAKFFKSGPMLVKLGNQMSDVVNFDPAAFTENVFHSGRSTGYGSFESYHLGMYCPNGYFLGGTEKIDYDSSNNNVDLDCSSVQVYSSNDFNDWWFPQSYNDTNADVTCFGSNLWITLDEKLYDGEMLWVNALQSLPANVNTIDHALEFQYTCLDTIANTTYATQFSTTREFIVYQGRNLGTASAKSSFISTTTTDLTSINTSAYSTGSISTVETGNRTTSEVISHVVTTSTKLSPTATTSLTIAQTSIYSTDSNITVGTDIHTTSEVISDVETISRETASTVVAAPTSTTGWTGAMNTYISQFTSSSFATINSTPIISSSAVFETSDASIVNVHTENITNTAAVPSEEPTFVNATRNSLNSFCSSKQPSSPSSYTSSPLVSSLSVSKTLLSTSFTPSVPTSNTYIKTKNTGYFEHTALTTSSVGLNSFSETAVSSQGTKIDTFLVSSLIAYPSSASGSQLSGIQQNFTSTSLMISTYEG
Molecule,mating efficiency [1],mating efficiency [2],Kd (Bcl2),Kd (BclB),Kd (BclW),Kd (BclXL),Kd (Bfl1),Kd (Mcl1)
Aga2 (from UniProt P32781 19-87),> 50%,57.1%,,,,,,
"XINDI-XCDP07 (designed binder, from a related filing) ADPKKVLDKAKDRAENVVRKLKKELEELYKEARKLDLTQEMRDRIRLAAIAARIAAFGDIFHAIMEALEEARKLKKAGLVNSQQLDELKRRLEELDEEAAQRAEKLGKEFELKLEY",,,3.81 nM,107 nM,14.9 nM,0.59 nM,7050 nM,17.4 nM
"BINDI-BCDP01 (designed binder, from a related filing) ADPKKVLDKAKDQAENRVRELKQELERLYKEARKLDLTQEMRRKLEWRYIAAMLKAIGDILNAIAQAENEADKLKKAGLVNSQQLDELRRRLEELAKEAARKAHDYGREFQLKLEY",,,17.3 nM,8.33 nM,2010 nM,20.2 nM,518 nM,0.46 nM

# From patent US20210054365A1
